Measurements as given in article PMC9170038, “Crowdsourced RNA design discovers diverse, reversible, efficient, self-contained molecular switches”.

B1: Eterna 1174 (Exclusion - Theophylline B) (ssRNA)
RNA: GCUGUCCAGUUCGAUACCAGAGUUAUCGCACUGUAGUGAUAAAGUGAUGUUUUAUCAGUCCUCCCUUGGCAGCGAUGCCCGGCUG
B2: Eterna 6407693 (Inverted Exclusion NG 2) (ssRNA)
RNA: UCAGGCUUCGAGAAGGACAUGAAUCGUAGCAUUGCUACGAUGAAUUAUACAUGAGGAUCACCCAUGUAGGAUAUCGGAGUCUGC
B3: Eterna 1257 (Exclusion - Tryptophan B) (ssRNA)
RNA: CUGUUUUAGUCGGCCGCCACUGCAAGUGAUGUUUGGAGUAUUAUGCCGUUUCUGUCCAUUGAACCCAGGACCGGGACCGGAUCGU
B4: Eterna 12594 (Exclusion 3) (ssRNA)
RNA: AACGAUCUAGGAUAUACAUGAGGAUCACCCAUGUAAGAGCCCAAACCAGGCUCCCUCUGUAGAAGGAGGUCAAA
B5: Eterna 6447203 (Exclusion NG 2) (ssRNA)
RNA: AUCAGCUCGUCAGGAUAUACGUAACUGCGUCAGCAGUGUGGUAAGAUCACAUGAGGAUCACCCAUGUAGAAGGGACGAGCUGAU
B6: Eterna 15969 (Sensor v3, turn-off variant 2) (ssRNA)
RNA: AAGUACCGUCACGAUAGUGAUGGUACAACAAGCAAAUGUACAUGAGGAUCACCCAUGUCCUCUUUUGCUCGUCUUGU
B7: Eterna 11606 (Exclusion 1) (ssRNA)
RNA: UUUUAACAUGAGGAUCACCCAUGUGAGGAUAUCGAUAUUUUUAUUAAUAUUAAUAAAACGAGAAGGCACAUUUU
B8: Eterna 7705565 (Exclusion - FMN A) (ssRNA)
RNA: AGACUACCACACUGUCAAUAGACAGUGAACUAGGAUAUGCUGAUAAGCAGAAGGAGUGAUGUUCCUAAAGGUAGUCAAAUAUAAU
B9: Eterna 6063240 (Exclusion 4) (ssRNA)
RNA: GUUUCGUCAGGAUAUGUGGCUUCGAUCGUGCGAAGAAGGCUACAGAAGGCACAUGAGGAUCACCCAUGUUCGUC
B10: Eterna 1188 (Exclusion - Theophylline B) (ssRNA)
RNA: AGCUGCCGAAUAGAUACCAGUGUCUUUAGUGAUGUUUCAGAGCUGGCACGAUCAGAAGGUCACCCUUGGCAGCUAGUGCCAGCGU
B11: Eterna 6458016 (Inverted Same State NG 1) (ssRNA)
RNA: CGCUACACCCAGAAGGACAUGAGGAUCACCCAUGUAGGAUAUGGGAGACACAGUCCCAUGUAGAGAAAUUACGCUAGUGUAGCG
B12: Eterna 6417730 (Small Loop Same State NG 3) (ssRNA)
RNA: ACAUGAGGAUCUCCCAUGUAAAAUUAGGAUAUAUAACUGCACAUGAGGAUCACCCAUGUUUAACCGUAGAAGGGAUAAAUAAUU
B13: Eterna 8125 (Exclusion 4) (ssRNA)
RNA: GUGAAGUGAGGAUAUACGAGAGAGGCUGAACCGGACGAGAAGUAGAAGGCACAUGAGGAUCACCCAUGUACGGG
B14: Eterna 5973727 (Sensor, turn-off variant 1) (ssRNA)
RNA: CCGUGCACGCUGCGCUCCUACAUGAGGAUCACCCAUGUGGUCCGGUGGCGUGGGUCGCCGGACUUGGCUCGUCUUGU
B15: Eterna 5998949 (Sensor, turn-off variant 1) (ssRNA)
RNA: UUUCCGGCGCGGGUUUUUUACAUGAGGAUCACCCAUGUCCUCUGCUUGUCUUGUCUUGGGCUUUUUUUGGGUUCGGG
B16: Eterna 7695377 (Same State - Theophylline A) (ssRNA)
RNA: UCUUAACUAAAAUAAUGGGAUACCAGUGAUACCAGCCAUAUGCAGGGCCCUUGGCAGCACCCUUGGCAGCCUCGAGUGAUGUUCG
B17: Eterna 1521 (Same State - FMN A) (ssRNA)
RNA: CGUAAGGAUUGACGACUGCAGAGCAAAAUAAAGGAUAUCGCAGCGUCGAGAAGGUUAUCGUGCGCCAGUGAUGUUGGCGGUAGUC
B18: Eterna 5503477 (Same State 1) (ssRNA)
RNA: AAGAAACAUGAGGAUCACCCAUGUAAGAUAAACACAGGAUAUGCGAAUAAAAUAAAUAAAGCAGAAGGGUGAAGAA
B19: Eterna 7710586 (Same State - Theophylline B) (ssRNA)
RNA: UCUGGUAUAUCUGAUACCAGAGUAUAGUAUCAAUUGCAUAUCCGCAGUGAUGUUGCGGAACUCCCUUGGCAGCAGAUCUAUCUCU
B20: Eterna 7720201 (Exclusion - Theophylline B) (ssRNA)
RNA: CCUAUCUCAUACGAUACCAGUCUACGAUAUUUUAUCGUUGCCAACACCGAGUGAUGUUCGGACCCUUGGCAGCGUAUGGGAUAGG
B21: Eterna 7709687 (Same State - Tryptophan B) (ssRNA)
RNA: UAUUAAGUGACGGCCGCCACUAUGGUGAUUUAUUUGUUUGAGUGAUGUUUUGAUGUUUGAUUUUGUAGGACCGGGUUAUGUGUUA
B22: Eterna 5988416 (Sensor, turn-off variant 1) (ssRNA)
RNA: UCACAAGCUGUGGGUGGUGACAUGAGGAUCACCCAUGUUUUGCUCGUCUUGUGCCGGGCCCGGCGCCCGGGCCCGGC
B23: Eterna 10033 (Sensor v3, turn-off variant 2) (ssRNA)
RNA: ACUAGCGAAAUGCUCGUCUUAUUUUUGUAGAGGUUCUAAACAUGAGGAUCACCCAUGUAGUGGUUUUUGUGGAGGUA
B24: Eterna 6429692 (Inverted Same State NG 1) (ssRNA)
RNA: AUCAUGCUCAAGAAGGACAUGAGGAUCACCCAUGUAGGAUAUUGGGCGGUCACUUCUAGCUUGUGUGUAUCUGAAUACUCCAGG
B25: Eterna 6429508 (Inverted Exclusion NG 3) (ssRNA)
RNA: GGGUGCCCUGCAGAAGCGACAUGAGGAUCACCCAUGUAACGUAGAAGGGCCCGGAACUAAGGUGGGCAGGAUAUACUGUUAGGU
B26: Eterna 7634493 (Same State - Theophylline A) (ssRNA)
RNA: ACAUGAGGAUCACCCAUGUCUGCCACUGAUACCAGCGGAAGAAAACGCCCUUGGCAGCAGAACAUGAGGAUCACCCAUGUAGGCU

The binders below were run against T1, MS2 coat protein, dlFG mutant (Escherichia phage MS2, UniProt P03612, del68-81insG) (assay: 4 mM Mg2+; no ligand; RNA-MaP array; 100 mM Tris-HCl pH 7.5, 80 mM KCl, 4 mM MgCl2, 0.1 mg/mL BSA, 1 mM DTT, 0.01 mg/mL yeast tRNA, 0.01% Tween-20; protein 1.5 nM to 3 uM; 37 C (Table S3)). Conditions: chain copies: 2; label: tethered by stalled RNA polymerase.

Row | Binder | Kd
1 | B1 | > 3000 nM
2 | B2 | 5.71 nM
3 | B3 | > 3000 nM
4 | B4 | 44.9 nM
5 | B5 | 51.7 nM
6 | B6 | 166 nM
7 | B7 | 68 nM
8 | B8 | > 3000 nM
9 | B9 | 34.2 nM
10 | B10 | > 3000 nM
11 | B11 | 166 nM
12 | B12 | 1100 nM
13 | B13 | 208 nM
14 | B14 | 92.3 nM
15 | B15 | 798 nM
16 | UUUCAGGGCAGUGAUGUUGCCCUCUUU (ssRNA) [Eterna 9 (K4-7bp_control)] | > 3000 nM
17 | B16 | > 3000 nM
18 | B17 | > 3000 nM
19 | B18 | 51.2 nM
20 | B19 | > 3000 nM
21 | B20 | > 3000 nM
22 | B21 | > 3000 nM
23 | B22 | 1080 nM

Each binder was assayed against T1, MS2 coat protein, dlFG mutant (assay: 4 mM Mg2+; miR-208a RNA 100 nM (AU…UUGU); RNA-MaP array; 100 mM Tris-HCl pH 7.5, 80 mM KCl, 4 mM MgCl2, 0.1 mg/mL BSA, 1 mM DTT, 0.01 mg/mL yeast tRNA, 0.01% Tween-20; protein 1.5 nM to 3 uM; 37 C (Table S3)). Conditions: chain copies: 2; label: tethered by stalled RNA polymerase.

Row | Binder | Kd
24 | B23 | 265 nM

Each binder was assayed against T1, MS2 coat protein, dlFG mutant (assay: 4 mM Mg2+; FMN 200 uM; RNA-MaP array; 100 mM Tris-HCl pH 7.5, 80 mM KCl, 4 mM MgCl2, 0.1 mg/mL BSA, 1 mM DTT, 0.01 mg/mL yeast tRNA, 0.01% Tween-20; protein 1.5 nM to 3 uM; 37 C (Table S3)). Conditions: chain copies: 2; label: tethered by stalled RNA polymerase.

Row | Binder | Kd
25 | B24 | 7.54 nM
26 | B25 | 7.24 nM

What follows are binders tested against T1, MS2 coat protein, dlFG mutant (assay: 4 mM Mg2+; theophylline 2 mM; RNA-MaP array; 100 mM Tris-HCl pH 7.5, 80 mM KCl, 4 mM MgCl2, 0.1 mg/mL BSA, 1 mM DTT, 0.01 mg/mL yeast tRNA, 0.01% Tween-20; protein 1.5 nM to 3 uM; 37 C (Table S3)). Conditions: chain copies: 2; label: tethered by stalled RNA polymerase.

Row | Binder | Kd
27 | B26 | 188 nM
